# Results as given in article PMC5519724, “Direct binding to GABARAP family members is essential for HIV-1 Nef plasma membrane localization” (Scientific Reports, 2017).
# Target: T1, recombinant HIV-1 Nef (SF2) with C-terminal hexahistidine tag (HIV-1 (SF2), UniProt P03407)
# T1 construct: also called Nef protein; Nef-Sepharose
# Assay: SPR; in vitro; estimate of the affinity; who was immobilised and the conditions are not told in the text (Supplementary Fig. 5)
# Conditions: both partners purified
# T1 sequence (P03407 whole entry): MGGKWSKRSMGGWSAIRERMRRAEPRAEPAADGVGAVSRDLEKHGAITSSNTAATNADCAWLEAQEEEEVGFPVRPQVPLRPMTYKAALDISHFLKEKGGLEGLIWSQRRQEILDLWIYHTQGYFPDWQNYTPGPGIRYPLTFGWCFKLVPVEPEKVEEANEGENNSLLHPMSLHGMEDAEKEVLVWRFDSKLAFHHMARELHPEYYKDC
binder,measurement,value
"recombinant human GABARAP (natural protein, also called 15N-GABARAP; [U-15N]-GABARAP) MKFVYKEEHPFEKRRSEGEKIRKKYPDRVPVIVEKAPKARIGDLDKKKYLVPSDLTVGQFYFLIRKRIHLRAEDALFFFVNNVIPPTSATMGQLYQEHHEEDFFLYIAYSDESVYGL",Kd,~20 µM
